Experiments:
[1] = biological target: T1, wild type full length EGFR purified from A431 cells (human, UniProt P00533 25-1210); assay: competition ELISA, competitor Ab-3; parameters: concentration or dose not given beside the values
T1 construct: mature; Bought; coated on ELISA wells; also called full length EGFR receptor antigen; Sigma E3641
Protocol: (§1) The ELISA was adapted from the descriptions published in Ditzel et al, 1995, The Journal of Immunology, Vol 154, Issue 2 893-906.
(§2) An epitope blocking ELISA was performed by diluting full length EGFR receptor antigen to 0.5 μg/ml in PBS; and coating 50 μl/ELISA well overnight at 4° C. […] Finally wells were washed four times with PBS-T and plates were developed by adding 50 μl/well TMB and read at 620 nm every 5-15-30 min. The degree of inhibition was calculated from the formula: % inhibition=(1−(OD competition/OD no competition (PBS)))×100.

[2] = biological target: T1, wild type full length EGFR purified …; assay: competition ELISA, competitor Ab-2; parameters: concentration or dose not given beside the values
Protocol: as §1, §2

[3] = biological target: T2, EGFRvIII (deletion mutant EGFR) (human, UniProt P00533 25-645, limits assumed); assay: EGFRvIII ELISA (Example 1)
T2 construct: also called deltaEGFR; rhEGFRvIII

[4] = biological target: T1, wild type full length EGFR purified …; assay: competition ELISA, competitor Ab-10; parameters: concentration or dose not given beside the values
Protocol: as §1, §2

[5] = biological target: T3, recombinant human EGFR extracellular domain with 6xHis (human, UniProt P00533 25-645); assay: SPR competition, competitor 1308
T3 construct: In-house produced; also called 6xHis EGFR ECD; soluble human EGFR ECD; not shown: 6xHis tag
Protocol: (§3) SPR analysis was performed on a Biacore 3000 machine containing four flow cells. A CM5 Biacore chip was conjugated with 10,000 Resonance units (Ru) polyclonal anti-His antibody to flow cells 1-4 according to the manufacturer's instructions. […] Immediately after antigen injection the maximal binding of the Anti-EGFR mAb without competition was established in each flow cell during a reference run. Briefly 5 μl antibody at a concentration of 40 μg/ml was injected over all flow cells with captured EGFR followed by stripping of the antibody/antigen complex with a low pH acid wash (10 sec. contact time with 10 mM Glycine-HCl, pH2). After the determination of Anti-EGFR antibody maximal binding to each flow cell, a competition run was performed during the same Biacore cycle. Flow cells were first saturated with EGFR ECD antigen followed by injection of different reference antibodies or Anti-EGFR antibodies into separate flow cells using the same antigen saturating conditions as outlined above. This step was immediately followed by a second injection of Anti-EGFR antibody over the flow cell saturated with EGFR antigen and competition antibody to minimize the dissociation of either antigen or blocking antibody. Then the antibody/antigen complexes were stripped off with a low pH acid wash (10 sec. contact time with 10 mM Glycine-HCl, pH 2) and the whole cycle beginning with the reference run was repeated with a new Anti-EGFR antibody. The degree of inhibition of tested Anti-EGFR antibodies were determined by comparing the Ru max value of the individual Anti-EGFR antibody before and after competition by introduction of report points recorded two seconds before and after injection of each sample.

[6] = biological target: T3, recombinant human EGFR extracellular …; assay: SPR competition, competitor 1042
Protocol: as §3

[7] = biological target: T1, wild type full length EGFR purified …; assay: competition ELISA, competitor Ab-11; parameters: concentration or dose not given beside the values
Protocol: as §1, §2

[8] = biological target: T1, wild type full length EGFR purified …; assay: competition ELISA, competitor ICR10; parameters: concentration or dose not given beside the values
Protocol: as §1, §2

[9] = biological target: T4, Cynomolgus EGFR extracellular domain (Cynomolgus monkey (Macaca fascicularis), UniProt P55245 25-645 (rhesus entry)); assay: ELISA on cynomolgus EGFR ECD (Example 10)
T4 construct: Cloned without signal peptide; also called Cynomolgus rEGFR ECD; Cynomolgus EGFR ECD
Procedure, shortened: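 Wells coated overnight at 4 °C with 1 μg/ml EGFR protein, then given serial four-fold antibody dilutions from 1 μg/ml for 1 h at room temperature. Binding detected with streptavidin-HRP and TMB, read at OD 450 nm.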

[10] = biological target: T1, wild type full length EGFR purified …; assay: competition ELISA, competitor Ab-5; parameters: concentration or dose not given beside the values
Protocol: as §1, §2

[11] = biological target: T1, wild type full length EGFR purified …; assay: competition ELISA, competitor Ab-1; parameters: concentration or dose not given beside the values
Protocol: as §1, §2

[12] = biological target: T3, recombinant human EGFR extracellular …; assay: SPR (BIAcore 2000); IgG captured on anti-human Fc, soluble monovalent EGFR ECD injected
Protocol: Kinetic analysis of the full length IgG antibodies of the invention was performed on a BIAcore 2000, employing an assay as described in (Canziani, Klakamp, et al. 2004, Anal. Biochem, 325:301-307) allowing measurement of monovalent affinities of whole IgG molecules against soluble antigen. […] The chip surface was regenerated in between cycles by stripping the captured antibody/antigen complexes with a 10 second injection of 100 mM H₃PO₄. […] The association rate constant (ka) and dissociation constant (kd) were evaluated globally from the generated sensograms with the BIA evaluation software 4.1 provided by the manufacturer.

B1: antibody 1257 (antibody, human IgG1, kappa, V domains shown)
VH: EVQLQQSGPELVKPGASVKIPCKTSGYTFTDYNMAWVKQSHGKSLEWIGDIIPNNGGAIYNQKFKGKATLTVDKSSSTASMELRSLTSEDTAVYFCARKNIYYRYDGAGALDYWGQGTSVTVSS
VL: QIVLTQSPAIMSASPGEKVTMTCSASSSVSYIYWYQQKPGSSPRLLIYDASNLASGVPVRFSGSGSGTSYSLTISRMEAEDAATYYCQQWSSYPITFGSGTKLEIKR
notes: Chimeric IgG1 kappa
% inhibition [1]: 77%
% inhibition [2]: 37%
binding result [3]: no binding
% inhibition [4]: 33%
% inhibition [5]: 27%
% inhibition [6]: 16%
% inhibition [7]: 92%
% inhibition [8]: 78%
binding result [9]: binds
% inhibition [10]: 25%
% inhibition [11]: 6%

B2: antibody 1260 (antibody, human IgG1, kappa, V domains shown)
VH: QVQLKESGPGLVAPSQSLSITCTVSGFSLTTYGVHWVRQPPGKGLEWLGVIWAGGSTNYNSALMSRLSIKKDNSKSQVFLKMNSLQTDDTAMYYCARAYGYNFDYWGQGTTLTVSS
VL: DIQMTQTTSSLSASLGDRVTISCSASQGITNYLNWYQQKPDGTVKLLIYYSSSLHSGVPSRFSGSGSGTDYSLTISNLEPEDIATYYCQQYSEIPYTFGGGTKLELKR
notes: Chimeric IgG1 kappa
% inhibition [1]: 12%
% inhibition [2]: 8%
binding result [3]: no binding
% inhibition [4]: 24%
% inhibition [6]: 31%
% inhibition [7]: 92%
% inhibition [8]: 90%
Kd [12]: 4.2 nM
koff [12]: 0.00016 s⁻¹
kon [12]: 37000 M⁻¹ s⁻¹
t1/2 [12]: 1.23 h
binding result [9]: binds
% inhibition [10]: 17%
% inhibition [11]: 12%

B3: antibody 1261 (antibody, human IgG1, kappa, V domains shown)
VH: EVQLVESGGGLVKPGGSLKLSCAVSGFTFSSYVMSWVRQTPEKRLEWVATITSGGRNIYYLDSVKGRFTISRDNAKNTLYLQMSSLRSEDTAMYYCARHEDYRYDGYYAMDYWGQGTSVTVSS
VL: QIVLTQSPAIMSASPGEKVTITCSASSSVSYMHWFQQKPGTSPKLWIYSTSNLASGVPARFSGSGSGTSYSLTISRMEAEDAATYYCQQRSSYPYTFGGGTKLELKR
notes: Chimeric IgG1 kappa
% inhibition [1]: 30%
% inhibition [2]: 6%
binding result [3]: no binding
% inhibition [4]: 13%
% inhibition [5]: -10%
% inhibition [6]: -18%
% inhibition [7]: 88%
% inhibition [8]: 57%
Kd [12]: 18.6 nM
koff [12]: 0.0032 s⁻¹
kon [12]: 170000 M⁻¹ s⁻¹
t1/2 [12]: 0.06 h
binding result [9]: binds
% inhibition [10]: 6%
% inhibition [11]: 3%

B4: antibody 1284 (antibody, human IgG1, kappa, V domains shown)
VH: QVQLQQPGAELVKPGASVKLSCKASGYTFTSDWMHWMKQRPGQGLEWIGEINPSNGRSSYNEKFKSKATLTVDKSSSTAYMQLSSLTSEDSAVYYCARIGGIYVETYWGQGTLVTVSS
VL: DIVLTQSPASLAVSLGQRATISCRASQSVSTSTYSYMHWYQQKSGQPPKLLIKYASNLESGVPARFSGSGSGTDFTLNIHPVEEEDTATYYCQHSWEIPWTFGGGTKLEIKR
notes: Chimeric IgG1 kappa
% inhibition [1]: 9%
% inhibition [2]: 26%
binding result [3]: no binding
% inhibition [4]: 30%
% inhibition [5]: 68%
% inhibition [6]: -1%
% inhibition [7]: 52%
% inhibition [8]: 88%
Kd [12]: 4.6 nM
koff [12]: 0.00015 s⁻¹
kon [12]: 32000 M⁻¹ s⁻¹
t1/2 [12]: 1.3 h
binding result [9]: binds
% inhibition [10]: 31%
% inhibition [11]: 12%

B5: antibody 1308 (antibody, human IgG1, kappa, V domains shown)
VH: EVQLQQSGAELVRPGSSVKISCKASGYAFSSYWMNWVRQRPGQGLEWIGQIYPGDGDTNYNGKFKGRATLTANKSSSTAYMQLSSLTSEDSAVYFCARRASSLYDVYPYYFDYWGQGTTLTVSS
VL: DIQMTQTTSSLSASLGDRVTISCRASQDISNYLNWYQQKPDGTVKVLIYYTSRLHSGVPSRFSGSGSGTDYSLTISNLEQEDIATYFCQQGNTLPYTFGGGTKLEIKR
notes: Chimeric IgG1 kappa
% inhibition [1]: 19%
% inhibition [2]: 11%
binding result [3]: no binding
% inhibition [4]: 12%
% inhibition [5]: 75%
% inhibition [7]: 91%
% inhibition [8]: 71%
binding result [9]: binds
% inhibition [10]: 0%
% inhibition [11]: 4%
